Assay results from patent US20080025990A1 (Eli Lilly, published 2008).
Values joined by “and” are separate entries in the source; they are usually repeats but may differ in a detail not shown here. Equal entries are not always repeated.

How the values were obtained:
[1] = target: T1, native human IGF-IR on human tumor cells (human, UniProt P08069 31-1367); assay: inhibition of 125I-IGF-I binding to OV90 (ovarian) cells
T1 construct: whole, on cells; also called endogenous cellular IGF-IR; solubilized IGF-IR (from MCF7 lysate)

[2] = target: T1, native human IGF-IR on human tumor cells; assay: cell-based or functional assay
[3] = target: T1, native human IGF-IR on human tumor cells; assay: inhibition of 125I-IGF-I binding to MCF7 (breast) cells
Protocol: (§1) The anti-IGF-IR antibodies were then tested for blocking of radiolabeled ligand to native IGF-IR on human tumor cells. […] MCF7 human breast cancer cells were seeded into 24 well dishes, and cultured overnight. Sub-confluent monolayers were washed 2-3 times in binding buffer (Iscove's Medium/0.1% BSA) and antibody added in binding buffer. […] The wells were then washed three times with ice-cold PBS/0.1% BSA. Monolayers were then lysed with 200 μl 0.5N NaOH and counted in a gamma counter.

[4] = target: T1, native human IGF-IR on human tumor cells; assay: inhibition of 125I-IGF-I binding to HPAC (pancreatic) cells
[5] = target: T1, native human IGF-IR on human tumor cells; assay: inhibition of 125I-IGF-I binding to HT-29 (colorectal) cells
[6] = target: T1, native human IGF-IR on human tumor cells; assay: cell-based or functional assay; remark: listed apart in the source
[7] = target: recombinant extracellular portion of human IGF-IR (soluble IGF-IR) (human) (UniProt P08069); assay: inhibition of 125I-IGF-I binding to immobilized IGF-IR, A12 against 2F8
[8] = target: T1, native human IGF-IR on human tumor cells; assay: inhibition of 125I-IGF-I binding to SK-ES1 (Ewing sarcoma) cells
[9] = target: recombinant extracellular portion of human IGF-IR (soluble IGF-IR) (human) (UniProt P08069); assay: comparison of affinities (BIAcore, Table 3)
[10] = target: T1, native human IGF-IR on human tumor cells; assay: inhibition of 125I-IGF-I binding to BXPC3 (pancreatic) cells
[11] = target: T1, native human IGF-IR on human tumor cells; assay: cell-based or functional assay; remark: listed apart in the source
[12] = target: recombinant extracellular portion of human IGF-IR (soluble IGF-IR) (human) (UniProt P08069); assay: human IGF-IR ELISA, full IgG; column head 'Binding (ED50)', concentration for 50% binding relative to saturation
[13] = target: T1, native human IGF-IR on human tumor cells; assay: inhibition of 125I-IGF-I binding to T47D (breast) cells
[14] = target: T1, native human IGF-IR on human tumor cells; assay: inhibition of 125I-IGF-I binding to 8226 (myeloma) cells
[15] = target: T1, native human IGF-IR on human tumor cells; assay: inhibition of 125I-IGF-I binding to MCF7 cells (the 3 nM is written at Table 4)
Protocol: as §1

[16] = target: recombinant extracellular portion of human IGF-IR (soluble IGF-IR) (human) (UniProt P08069); assay: inhibition of 125I-IGF-I binding to immobilized human IGF-IR, full IgG; 'Blocking (EC50)'
[17] = target: recombinant extracellular portion of human IGF-IR (soluble IGF-IR) (human) (UniProt P08069); assay: BIAcore 3000, soluble IGF-IR immobilized on the chip, full IgG
[18] = target: T1, native human IGF-IR on human tumor cells; assay: inhibition of 125I-IGF-I binding to MCF7 cells
Protocol: as §1

[19] = target: recombinant extracellular portion of human IGF-IR (soluble IGF-IR) (human) (UniProt P08069); assay: BIAcore binding kinetic analysis
[20] = target: recombinant extracellular portion of human IGF-IR (soluble IGF-IR) (human) (UniProt P08069); assay: inhibition of 125I-IGF-I binding to immobilized human IGF-IR, full IgG; 'Blocking (EC50)'; lower end of the printed range 3-6 nM
[21] = target: recombinant extracellular portion of human IGF-IR (soluble IGF-IR) (human) (UniProt P08069); assay: inhibition of 125I-IGF-I binding to immobilized human IGF-IR, full IgG; 'Blocking (EC50)'; upper end of the printed range 3-6 nM

B1: antibody A12, full length human IgG1 with lambda light chain (antibody, V domains shown)
VH: EVQLVQSGAEVKKPGSSVKVSCKASGGTFSSYAISWVRQAPGQGLEWMGGIIPIFGTANYAQKFQGRVTITADKSTSTAYMELSSLRSEDTAVYYCARAPLRFLEWSTQDHYYYYYMDVWGKGTTVTVSS
VL: SSELTQDPAVSVALGQTVRITCQGDSLRSYYATWYQQKPGQAPILVIYGENKRPSGIPDRFSGSSSGNTASLTITGAQAEDEADYYCKSRDGSGQHLVFGGGTKLTVLG
notes: also called IMC-A12; mAb A12
IC50 [1]: 6 nM | reduction in IGF-IR surface staining of MCF7 cells after 4 h with 50 nM A12 at 37 C (FACS, mean fluorescence intensity ratio) [2]: 90% | IC50 [3]: 3 nM | IC50 [4]: 10 nM | IC50 [5]: 10 nM | surface IGF-IR staining of MCF7 cells (mean fluorescence intensity ratio) after 4 hours with A12; untreated cells 35.7, control 1 [6]: 3.3 | fold increase in blocking activity relative to 2F8 [7]: > 3 fold | IC50 [8]: 2 nM | fold higher affinity relative to 2F8 [9]: 10 fold | IC50 [10]: 20 nM | IC50 of inhibition of IGF-I-stimulated [3H]thymidine incorporation (mitogenesis), MCF7 breast [11]: 6 nM | IC50 of inhibition of mitogenesis, 8226 myeloma [11]: 5 nM | IC50 of inhibition of mitogenesis, BT474 breast [11]: 5 nM | IC50 of inhibition of mitogenesis, BXPC3 pancreatic [11]: 2 nM | IC50 of inhibition of mitogenesis, HT-29 colorectal [11]: 6 nM | IC50 of inhibition of mitogenesis, SK-ES1 Ewing sarcoma [11]: 10 nM | IC50 of inhibition of mitogenesis, T47D breast [11]: 7 nM | EC50 [12]: 0.3 nM | IC50 [13]: 6 nM | IC50 [14]: 20 nM | IC50 [15]: 0.45 µg/mL | IC50 [16]: 0.6 to 1 nM

B2: antibody 2F8, full length human IgG1 with lambda light chain (antibody, V domains shown)
VH: B1 VH
VL: SSELTQDPAVSVALGQTVRITCQGDSLRSYYASWYQQKPGQAPVLVIYGKNNRPSGIPDRFSGSSSGNTASLTITGAQAEDEADYYCNSRDNSDNRLIFGGGTKLTVLS
notes: Tested as full IgG1 (human gamma 1 constant region) with full-length lambda light chain; also called IMC-2F8; 2F8 IgG
Kd [17]: 0.65 nM | IC50 [18]: 30 nM and 4.5 µg/mL | Kd [19]: 0.5 to 1 nM | EC50 [12]: 2 nM | IC50 [20]: > 3 nM | IC50 [21]: < 6 nM
